Results taken from article doi:10.1101/2020.06.03.131664 (2020).

How the values were obtained:
Experiment in all cases: SPR; bivalent fitting model
[1] = target: HAdV-C5 capsid (human adenovirus type 5, species C, replication-defective vector particle) (human adenovirus type 5 (species C), UniProt P04133 1-952)
[2] = target: HAdV-D26 capsid (human adenovirus type 26, species D, replication-defective vector particle) (human adenovirus type 26 (species D))
[3] = target: HAdV-B35 capsid (human adenovirus type 35, species B, replication-defective vector particle) (human adenovirus type 35 (species B))

HAdV-C5 capsid (human adenovirus type 5, species C, replication-defective vector particle), sequence (P04133 whole entry, looked up): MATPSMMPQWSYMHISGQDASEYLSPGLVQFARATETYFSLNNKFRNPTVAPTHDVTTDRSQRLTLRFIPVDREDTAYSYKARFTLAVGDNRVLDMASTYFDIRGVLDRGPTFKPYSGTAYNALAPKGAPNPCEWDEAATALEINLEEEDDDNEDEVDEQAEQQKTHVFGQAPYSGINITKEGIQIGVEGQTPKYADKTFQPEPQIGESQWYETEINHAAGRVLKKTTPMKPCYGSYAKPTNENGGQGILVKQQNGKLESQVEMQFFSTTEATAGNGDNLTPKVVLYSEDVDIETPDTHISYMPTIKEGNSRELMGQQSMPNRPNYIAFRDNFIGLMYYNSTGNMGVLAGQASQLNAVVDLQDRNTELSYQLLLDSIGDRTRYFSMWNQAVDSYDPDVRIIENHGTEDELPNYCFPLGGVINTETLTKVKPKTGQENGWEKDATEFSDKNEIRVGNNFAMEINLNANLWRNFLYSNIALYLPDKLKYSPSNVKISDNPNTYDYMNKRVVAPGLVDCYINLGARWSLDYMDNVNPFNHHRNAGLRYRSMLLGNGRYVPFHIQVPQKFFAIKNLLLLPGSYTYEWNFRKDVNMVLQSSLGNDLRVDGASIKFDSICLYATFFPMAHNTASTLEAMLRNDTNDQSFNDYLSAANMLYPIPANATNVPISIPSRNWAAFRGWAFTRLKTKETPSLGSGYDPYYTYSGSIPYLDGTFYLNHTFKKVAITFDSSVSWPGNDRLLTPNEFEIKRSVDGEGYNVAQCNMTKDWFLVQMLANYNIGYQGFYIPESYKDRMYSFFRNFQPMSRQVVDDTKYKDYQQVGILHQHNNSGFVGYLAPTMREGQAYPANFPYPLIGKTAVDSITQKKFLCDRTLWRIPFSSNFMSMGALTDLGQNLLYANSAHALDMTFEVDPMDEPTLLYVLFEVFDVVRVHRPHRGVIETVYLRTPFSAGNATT

B1: human lactoferrin (natural protein)
chain: GRRRSVQWCAVSQPEATKCFQWQRNMRKVRGPPVSCIKRDSPIQCIQAIAENRADAVTLDGGFIYEAGLAPYKLRPVAAEVYGTERQPRTHYYAVAVVKKGGSFQLNELQGLKSCHTGLRRTAGWNVPIGTLRPFLNWTGPPEPIEAAVARFFSASCVPGADKGQFPNLCRLCAGTGENKCAFSSQEPYFSYSGAFKCLRDGAGDVAFIRESTVFEDLSDEAERDEYELLCPDNTRKPVDKFKDCHLARVPSHAVVARSVNGKEDAIWNLLRQAQEKFGKDKSPKFQLFGSPSGQKDLLFKDSAIGFSRVPPRIDSGLYLGSGYFTAIQNLRKSEEEVAARRARVVWCAVGEQELRKCNQWSGLSEGSVTCSSASTTEDCIALVLKGEADAMSLDGGYVYTAGKCGLVPVLAENYKSQQSSDPDPNCVDRPVEGYLAVAVVRRSDTSLTWNSVKGKKSCHTAVDRTAGWNIPMGLLFNQTGSCKFDEYFSQSCAPGSDPRSNLCALCIGDEQGENKCVPNSNERYYGYTGAFRCLAENAGDVAFVKDVTVLQNTDGNNNEAWAKDLKLADFALLCLDGKRKPVTEARSCHLAMAPNHAVVSRMDKVERLKQVLLHQQAKFGRNGSDCPDKFCLFQSETKNLLFNDNTECLARLHGKTTYEKYLGPQYVAGITNLKKCSTSPLLEACEFLRK
Binder B1 has a Kd [1] of 800 nM, a Kd [2] of 2550 nM and a Kd [3] of 54000 nM.
